Kd, IC50 and Ki data for 7 sequences are collected here from US6207816.

Data set [1] deals with T1, KGF (hKGF) (Homo sapiens) (UniProt P21781).
T1 sequence: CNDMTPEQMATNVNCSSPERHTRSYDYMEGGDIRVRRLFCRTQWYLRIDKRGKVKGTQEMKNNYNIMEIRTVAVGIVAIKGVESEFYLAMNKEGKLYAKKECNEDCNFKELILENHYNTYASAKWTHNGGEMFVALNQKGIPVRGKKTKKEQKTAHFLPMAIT
Briefly: filter. The following applies: 2'-F pyrimidines.

Data set [2] deals with T1, KGF (hKGF) (Homo sapiens). Briefly: competition. The following applies: 2'-F pyrimidines; for IC50: PC-3 assay.

The sequence “GGGAGGACGAUGCGGGAAUUAACAGGGCCAGAAUUCUCAUCUNNCUUCCCGUGACCCAGACGACUCGCCCGA [12F]” had a Kd in data set [1] (DPBS, 37 C) of 1.38 nM. For the sequence “GGGAGGACGAUGCGGGGACAAWYAGCGGUGUCUUUUCAUUUNKAUCCUCCGACRUCCCAGACGACUCGCCCGA [56F (K56F)]”, in data set [2], the IC50 was 1 nM. Consider “GGGAGGACGAUGCGGCAANNNNNNNCUCUCUCCUGGCGUUCCGCAACCCGCCCCCAGACGACUCGCCCGA [19F]”, for which the Kd in data set [1] (second column 0.94-2.57) came to 1.5 nM. Turning to “GGGAGGACGAUGCGGGGACAAWYAGCGGUGUCUUUUCAUUUNKAUCCUCCGACRUCCCAGACGACUCGCCCGA [56F]”, in data set [1] (biphasic, 32% high affinity, Kd2 3.00 nM), the equilibrium dissociation constant (Kd) is 0.07 nM.

The sequence “GGGAGGACGAUGCGGGAAUUCCCAGCGCUUGACUGAUACAAACNUUCCCGUGCCGCAGACGACUCGCCCGA [16F]” showed an equilibrium dissociation constant (Kd) in data set [1] (biphasic, high affinity 49%, Kd2 3.39 nM) of 0.83 nM.

For the sequence “GGGAGGACGAUGCGGNGACUGAUUUUUCCUUGNBCAGUGUAAUUUCCUGGCUGCCCCAGACGACUCGCCCGA [38F]”, the Kd in data set [1] (DPBS, 37 C) came out at 0.33 nM. Regarding “GGGAGGACGAUGCGGNGACUGAUUUUUCCUUGNBCAGUGUAAUUUCCUGGCUGCCCCAGACGACUCGCCCGA [38F (K38F)]”, the IC50 in data set [2] stood at 0.6 nM. The sequence also registered an inhibition constant (Ki) in data set [2] (PC-3 cells, 20 nM on NIH3T3/FGFR-2) of 0.22 nM.
